The numbers were not newly measured in paper PMC6188814, which cites them from elsewhere.

This data set has as its target ALDH7A1 (Homo sapiens) (UniProt P49419). In words: analytical ultracentrifugation.

In the case of ALDH7A1 (from UniProt P49419), the dissociation constant Kd is 16 µM.

Broadly, the Kd is the free concentration of one partner at which half of the binding sites on the other are occupied at equilibrium, for simple one-to-one binding.
